Data on one substance can be found in patent publication US20190119348A1, “PARATHYROID HORMONE RECEPTOR 1 ANTAGONIST AND INVERSE AGONIST POLYPEPTIDES AND METHODS OF THEIR USE” (The General Hospital Corporation, priority 2016, published 2019).

The target of the experiment is human parathyroid hormone receptor 1 (hPTHR1) (human) (UniProt Q03431). The experiment is described as follows: cell-based or functional assay.
Sequence of human parathyroid hormone receptor 1 (hPTHR1) (human) (Q03431 27-593): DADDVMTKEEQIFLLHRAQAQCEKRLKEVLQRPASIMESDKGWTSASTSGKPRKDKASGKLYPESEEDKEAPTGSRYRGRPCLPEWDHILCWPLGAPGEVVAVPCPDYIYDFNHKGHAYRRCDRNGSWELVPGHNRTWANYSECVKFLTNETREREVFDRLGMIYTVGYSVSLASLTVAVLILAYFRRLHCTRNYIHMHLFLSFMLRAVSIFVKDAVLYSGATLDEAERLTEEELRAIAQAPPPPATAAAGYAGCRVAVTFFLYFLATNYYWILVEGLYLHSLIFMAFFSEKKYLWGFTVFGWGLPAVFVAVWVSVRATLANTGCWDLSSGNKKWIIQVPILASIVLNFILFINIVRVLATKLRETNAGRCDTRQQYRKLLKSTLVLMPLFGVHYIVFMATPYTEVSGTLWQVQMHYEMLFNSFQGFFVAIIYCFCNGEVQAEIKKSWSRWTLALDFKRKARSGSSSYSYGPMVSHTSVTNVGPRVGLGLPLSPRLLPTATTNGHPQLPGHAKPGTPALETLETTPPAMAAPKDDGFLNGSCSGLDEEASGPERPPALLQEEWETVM

As to “TMR-dW12, W23-LA-PTH(7-36)-1991 (peptide)”, the IC50, antagonism of PTH(1-34) (0.3 nM)-induced cAMP response, SGS-72 cells turned out to be 1.95 nM and the pIC50, antagonism of PTH(1-34) (0.3 nM)-induced cAMP response, SGS-72 cells was 8.71 -log M.
